According to the RNAGym collection of RNA variant scans (doi:10.1093/molbev/msab373):

B1: Azoarcus group I ribozyme (parent)
chain: GUGCCUUGCGCCGGGAAACCACGCAAGGGAUGGUGUCAAAUUCGGCGAAACCUAAGCGCCCGCCCGGGCGUAUGGCAACGCCGAGCCAAGCUUCGGCGCCUGCGCCGAUGAAGGUGUAGAGACUAGACGGCACCCACCUAAGGCAAACGCUAUGGUGAAGGCAUAGUCCAGGGAGUGGCGAAAGUCACACAAACCGG

Variants of: B1
Test: reverse-splicing fitness (ratio to wild type); higher = more active; in vitro selection; Mg2+ level not given
Method in brief: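 An in vitro group I ribozyme library with randomized positions was T7-transcribed and gel-purified. In triplicate, 10 pmol RNA in EPPS pH 7.5 was reacted with 50 pmoles of a 30-nt RNA substrate for 1 h at 37 °C across several added MgCl2 levels (1–48 mM), then stopped with EDTA. Products were reverse transcribed from a substrate-complementary primer, PCR-amplified and sequenced (HiSeq 4000). Fitness is a variant's read proportion after selection over that before, normalised to wild type.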

For C82A A111C A120G A145G C150A C169U U176A, which reverse-splicing fitness is on record?
The reverse-splicing fitness was 0.0154.

For C82A A111C A120G A145G C150A C169U U176C, which reverse-splicing fitness is on record?
The reverse-splicing fitness was 0.0139.

For C82A A111C A120G A145G C150A C169U U176G, which reverse-splicing fitness is on record?
Its reverse-splicing fitness is 0.00632.

With C82A A111C A120G A145G C150A U176A as the variant, how does the reverse-splicing fitness read?
Its reverse-splicing fitness is 0.00969.

Which reverse-splicing fitness does the source give for C82A A111C A120G A145G C150A U176C here?
Its reverse-splicing fitness is 0.0185.

With C82A A111C A120G A145G C150A U176G as the variant, how does the reverse-splicing fitness read?
Its reverse-splicing fitness is 0.00772.

Which reverse-splicing fitness does the source give for C82A A111C A120G A145G C150G here?
The reverse-splicing fitness was 0.00731.

For C82A A111C A120G A145G C150G C169A, which reverse-splicing fitness is on record?
The reverse-splicing fitness was 0.00875.

For C82A A111C A120G A145G C150G C169A U176A, which reverse-splicing fitness is on record?
Its reverse-splicing fitness is 0.0133.

Which reverse-splicing fitness does the source give for C82A A111C A120G A145G C150G C169A U176C here?
The reverse-splicing fitness was 0.0113.

For C82A A111C A120G A145G C150G C169A U176G, which reverse-splicing fitness is on record?
Its reverse-splicing fitness is 0.00771.

For C82A A111C A120G A145G C150G C169G, which reverse-splicing fitness is on record?
Its reverse-splicing fitness is 0.00706.

With C82A A111C A120G A145G C150G C169G U176A as the variant, how does the reverse-splicing fitness read?
Its reverse-splicing fitness is 0.00968.

For C82A A111C A120G A145G C150G C169G U176C, which reverse-splicing fitness is on record?
The reverse-splicing fitness was 0.0118.

With C82A A111C A120G A145G C150G C169G U176G as the variant, how does the reverse-splicing fitness read?
Its reverse-splicing fitness is 0.00603.

With C82A A111C A120G A145G C150G C169U as the variant, how does the reverse-splicing fitness read?
The reverse-splicing fitness was 0.00877.

With C82A A111C A120G A145G C150G C169U U176A as the variant, how does the reverse-splicing fitness read?
Its reverse-splicing fitness is 0.0114.

For C82A A111C A120G A145G C150G C169U U176C, which reverse-splicing fitness is on record?
The reverse-splicing fitness was 0.0123.

For C82A A111C A120G A145G C150G C169U U176G, which reverse-splicing fitness is on record?
Its reverse-splicing fitness is 0.00784.

With C82A A111C A120G A145G C150G U176A as the variant, how does the reverse-splicing fitness read?
Its reverse-splicing fitness is 0.00663.

With C82A A111C A120G A145G C150G U176C as the variant, how does the reverse-splicing fitness read?
The reverse-splicing fitness was 0.0111.

With C82A A111C A120G A145G C150G U176G as the variant, how does the reverse-splicing fitness read?
The reverse-splicing fitness was 0.00573.

For C82A A111C A120G A145G C150U, which reverse-splicing fitness is on record?
Its reverse-splicing fitness is 0.0128.

Which reverse-splicing fitness does the source give for C82A A111C A120G A145G C150U C169A here?
Its reverse-splicing fitness is 0.0111.

For C82A A111C A120G A145G C150U C169A U176A, which reverse-splicing fitness is on record?
The reverse-splicing fitness was 0.016.

Which reverse-splicing fitness does the source give for C82A A111C A120G A145G C150U C169A U176C here?
The reverse-splicing fitness was 0.0149.

With C82A A111C A120G A145G C150U C169A U176G as the variant, how does the reverse-splicing fitness read?
Its reverse-splicing fitness is 0.00613.

With C82A A111C A120G A145G C150U C169G as the variant, how does the reverse-splicing fitness read?
The reverse-splicing fitness was 0.0106.

Which reverse-splicing fitness does the source give for C82A A111C A120G A145G C150U C169G U176A here?
Its reverse-splicing fitness is 0.0123.

Which reverse-splicing fitness does the source give for C82A A111C A120G A145G C150U C169G U176C here?
Its reverse-splicing fitness is 0.0182.

With C82A A111C A120G A145G C150U C169G U176G as the variant, how does the reverse-splicing fitness read?
Its reverse-splicing fitness is 0.00582.

With C82A A111C A120G A145G C150U C169U as the variant, how does the reverse-splicing fitness read?
Its reverse-splicing fitness is 0.00986.

With C82A A111C A120G A145G C150U C169U U176A as the variant, how does the reverse-splicing fitness read?
The reverse-splicing fitness was 0.0155.

For C82A A111C A120G A145G C150U C169U U176C, which reverse-splicing fitness is on record?
The reverse-splicing fitness was 0.0131.

For C82A A111C A120G A145G C150U C169U U176G, which reverse-splicing fitness is on record?
The reverse-splicing fitness was 0.00525.

For C82A A111C A120G A145G C150U U176A, which reverse-splicing fitness is on record?
The reverse-splicing fitness was 0.00883.

Which reverse-splicing fitness does the source give for C82A A111C A120G A145G C150U U176C here?
Its reverse-splicing fitness is 0.0186.

With C82A A111C A120G A145G C150U U176G as the variant, how does the reverse-splicing fitness read?
The reverse-splicing fitness was 0.00706.

Which reverse-splicing fitness does the source give for C82A A111C A120G A145G C169A here?
Its reverse-splicing fitness is 0.0107.

For C82A A111C A120G A145G C169A U176A, which reverse-splicing fitness is on record?
The reverse-splicing fitness was 0.0215.

Which reverse-splicing fitness does the source give for C82A A111C A120G A145G C169A U176C here?
The reverse-splicing fitness was 0.0288.

For C82A A111C A120G A145G C169A U176G, which reverse-splicing fitness is on record?
The reverse-splicing fitness was 0.00509.

With C82A A111C A120G A145G C169G as the variant, how does the reverse-splicing fitness read?
Its reverse-splicing fitness is 0.00963.

Which reverse-splicing fitness does the source give for C82A A111C A120G A145G C169G U176A here?
Its reverse-splicing fitness is 0.0211.

Which reverse-splicing fitness does the source give for C82A A111C A120G A145G C169G U176C here?
Its reverse-splicing fitness is 0.0266.

With C82A A111C A120G A145G C169G U176G as the variant, how does the reverse-splicing fitness read?
The reverse-splicing fitness was 0.00491.

With C82A A111C A120G A145G C169U as the variant, how does the reverse-splicing fitness read?
Its reverse-splicing fitness is 0.00908.

Which reverse-splicing fitness does the source give for C82A A111C A120G A145G C169U U176A here?
The reverse-splicing fitness was 0.0159.

For C82A A111C A120G A145G C169U U176C, which reverse-splicing fitness is on record?
Its reverse-splicing fitness is 0.0157.

With C82A A111C A120G A145G C169U U176G as the variant, how does the reverse-splicing fitness read?
Its reverse-splicing fitness is 0.00473.

Which reverse-splicing fitness does the source give for C82A A111C A120G A145G U176A here?
The reverse-splicing fitness was 0.0153.

Which reverse-splicing fitness does the source give for C82A A111C A120G A145G U176C here?
Its reverse-splicing fitness is 0.0226.

With C82A A111C A120G A145G U176G as the variant, how does the reverse-splicing fitness read?
Its reverse-splicing fitness is 0.00581.

For C82A A111C A120G A145U, which reverse-splicing fitness is on record?
Its reverse-splicing fitness is 0.0152.

Which reverse-splicing fitness does the source give for C82A A111C A120G A145U C150A here?
Its reverse-splicing fitness is 0.00771.

For C82A A111C A120G A145U C150A C169A, which reverse-splicing fitness is on record?
Its reverse-splicing fitness is 0.00893.

With C82A A111C A120G A145U C150A C169A U176A as the variant, how does the reverse-splicing fitness read?
Its reverse-splicing fitness is 0.0115.

With C82A A111C A120G A145U C150A C169A U176C as the variant, how does the reverse-splicing fitness read?
The reverse-splicing fitness was 0.0113.

With C82A A111C A120G A145U C150A C169A U176G as the variant, how does the reverse-splicing fitness read?
The reverse-splicing fitness was 0.00621.

With C82A A111C A120G A145U C150A C169G as the variant, how does the reverse-splicing fitness read?
Its reverse-splicing fitness is 0.00777.

Which reverse-splicing fitness does the source give for C82A A111C A120G A145U C150A C169G U176A here?
Its reverse-splicing fitness is 0.0138.

With C82A A111C A120G A145U C150A C169G U176C as the variant, how does the reverse-splicing fitness read?
Its reverse-splicing fitness is 0.0156.

Which reverse-splicing fitness does the source give for C82A A111C A120G A145U C150A C169G U176G here?
The reverse-splicing fitness was 0.00576.

For C82A A111C A120G A145U C150A C169U, which reverse-splicing fitness is on record?
The reverse-splicing fitness was 0.00736.

Which reverse-splicing fitness does the source give for C82A A111C A120G A145U C150A C169U U176A here?
The reverse-splicing fitness was 0.017.

With C82A A111C A120G A145U C150A C169U U176C as the variant, how does the reverse-splicing fitness read?
Its reverse-splicing fitness is 0.0127.

Which reverse-splicing fitness does the source give for C82A A111C A120G A145U C150A C169U U176G here?
The reverse-splicing fitness was 0.00563.

For C82A A111C A120G A145U C150A U176A, which reverse-splicing fitness is on record?
The reverse-splicing fitness was 0.0139.

With C82A A111C A120G A145U C150A U176C as the variant, how does the reverse-splicing fitness read?
The reverse-splicing fitness was 0.02.

Which reverse-splicing fitness does the source give for C82A A111C A120G A145U C150A U176G here?
Its reverse-splicing fitness is 0.00589.

Which reverse-splicing fitness does the source give for C82A A111C A120G A145U C150G here?
Its reverse-splicing fitness is 0.00701.

Which reverse-splicing fitness does the source give for C82A A111C A120G A145U C150G C169A here?
The reverse-splicing fitness was 0.00851.

For C82A A111C A120G A145U C150G C169A U176A, which reverse-splicing fitness is on record?
Its reverse-splicing fitness is 0.00941.

With C82A A111C A120G A145U C150G C169A U176C as the variant, how does the reverse-splicing fitness read?
The reverse-splicing fitness was 0.00969.

Which reverse-splicing fitness does the source give for C82A A111C A120G A145U C150G C169A U176G here?
Its reverse-splicing fitness is 0.00558.

For C82A A111C A120G A145U C150G C169G, which reverse-splicing fitness is on record?
Its reverse-splicing fitness is 0.00749.

For C82A A111C A120G A145U C150G C169G U176A, which reverse-splicing fitness is on record?
The reverse-splicing fitness was 0.00626.

Which reverse-splicing fitness does the source give for C82A A111C A120G A145U C150G C169G U176C here?
The reverse-splicing fitness was 0.00484.

Which reverse-splicing fitness does the source give for C82A A111C A120G A145U C150G C169G U176G here?
The reverse-splicing fitness was 0.00527.

With C82A A111C A120G A145U C150G C169U as the variant, how does the reverse-splicing fitness read?
Its reverse-splicing fitness is 0.00788.

Which reverse-splicing fitness does the source give for C82A A111C A120G A145U C150G C169U U176A here?
Its reverse-splicing fitness is 0.00693.

With C82A A111C A120G A145U C150G C169U U176C as the variant, how does the reverse-splicing fitness read?
The reverse-splicing fitness was 0.0111.

Which reverse-splicing fitness does the source give for C82A A111C A120G A145U C150G C169U U176G here?
Its reverse-splicing fitness is 0.00542.
